# Residue numbers refer to the chain shown, from its start.
# B1: purified PKD1 (protein)
# chain: MSAPPVLRPPSPLLPVAAAAAAAAAALVPGSGPGPAPFLAPVAAPVGGISFHLQIGLSREPVLLLQDSSGDYSLAHVREMACSIVDQKFPECGFYGMYDKILLFRHDPTSENILQLVKAASDIQEGDLIEVVLSASATFEDFQIRPHALFVHSYRAPAFCDHCGEMLWGLVRQGLKCEGCGLNYHKRCAFKIPNNCSGVRRRRLSNVSLTGVSTIRTSSAELSTSAPDEPLLQKSPSESFIGREKRSNSQSYIGRPIHLDKILMSKVKVPHTFVIHSYTRPTVCQYCKKLLKGLFRQGLQCKDCRFNCHKRCAPKVPNNCLGEVTINGDLLSPGAESDVVMEEGSDDNDSERNSGLMDDMEEAMVQDAEMAMAECQNDSGEMQDPDPDHEDANRTISPSTSNNIPLMRVVQSVKHTKRKSSTVMKEGWMVHYTSKDTLRKRHYWRLDSKCITLFQNDTGSRYYKEIPLSEILSLEPVKTSALIPNGANPHCFEITTANVVYYVGENVVNPSSPSPNNSVLTSGVGADVARMWEIAIQHALMPVIPKGSSVGTGTNLHRDISVSISVSNCQIQENVDISTVYQIFPDEVLGSGQFGIVYGGKHRKTGRDVAIKIIDKLRFPTKQESQLRNEVAILQNLHHPGVVNLECMFETPERVFVVMEKLHGDMLEMILSSEKGRLPEHITKFLITQILVALRHLHFKNIVHCDLKPENVLLASADPFPQVKLCDFGFARIIGEKSFRRSVVGTPAYLAPEVLRNKGYNRSLDMWSVGVIIYVSLSGTFPFNEDEDIHDQIQNAAFMYPPNPWKEISHEAIDLINNLLQVKMRKRYSVDKTLSHPWLQDYQTWLDLRELECKIGERYITHESDDLRWEKYAGEQGLQYPTHLINPSASHSDTPETEETEMKALGERVSIL
# Tests used:
# [1] = target: T1, recombinant GST-Flag-CERT-S132A(1-138) fusion protein from E. coli
# T1 chain: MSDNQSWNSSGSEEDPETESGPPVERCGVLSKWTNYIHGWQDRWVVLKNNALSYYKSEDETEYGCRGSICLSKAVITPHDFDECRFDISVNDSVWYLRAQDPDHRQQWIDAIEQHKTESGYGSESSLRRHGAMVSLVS
# [2] = target: T2, recombinant GST-Flag-CERT(1-138) wild type fusion protein from E. coli
# T2 chain: T1 chain with A132S
protein,measurement,setting,value
B1,"incorporation of radioactivity ([γ-32P]-ATP, in vitro kinase assay)",[1],This is significantly impaired in the case of the CERT-S132A fusion protein
same,"incorporation of radioactivity ([γ-32P]-ATP, in vitro kinase assay)",[2],incorporation of radioactivity is detected
